The series can be described thus: self-splicing fitness, log relative to wild type (ln ratio); higher = more splicing; Tetrahymena group I intron in knt gene, E. coli kanamycin selection, DiMSum; sequences stand for … in CUCUCU…GGAGGGAAAAGUUAUCAGGCAUGCACCUGGUAGCUAGUCUUUAAACCAAUAGAUUGCAUCGGUUUAAAAGGCAAGACCGUCAAAUUGCGGGAAAGGGGUCAACAGCCGUUCAGUACCAAGUCUCAGGGGAAACUUUGAGAUGGCCUUGCAAAGGGUAUGGUAAUAAGCUGACGGACAUGGUCCUAACCACGCAGCCAAGUCCUAAGUCAACAGAUCUUCUGUUGAUAUGGAUGCAGUUCACAGACUAAAUGUCGGUCGGGGAAGAUGUAUUCUUCUCAUAAGAUAUAGUCGGACCUCUCCUUAAUGGGAGCUAGCGGAUGAAGUGAUGCAACACUGGAGCCGCUGGGAACUAAUUUGUAUGCGAAAGUAUAUUGAUUAGUUUUGGAGUACUCGUGGUCG
The procedure, abridged: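 Library with all eight P1ex-region intron nucleotides randomised, intron inside the knt kanamycin-resistance gene on pET-22b(+), in E. coli BL21(DE3). Cells grew overnight at 37°C or 30°C on LB agar with or without 25 μg/mL kanamycin (plus 100 μg/mL carbenicillin, 50 μM IPTG, 0.2% rhamnose), in six replicate transformations. Pooled colonies were amplicon-sequenced on Illumina HiSeq 2500. DiMSum fitness is the error-weighted combination of wild-type-normalised replicate fold changes, kanamycin versus none.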

± gives the uncertainty stated by the source.

As to CUUAAGCAAUAUUACGGCGU, the “self-splicing fitness (ln)” value was -3.35 ± 0.2 (30 °C) and -1.89 ± 0.17 (37 °C).

For CUUAAGCAAUAUUACGGGCA, the “self-splicing fitness (ln)” value reads like this: (30 °C) -3.03 ± 0.23; (37 °C) -2.3 ± 0.25.

With CUUAAGCAAUAUUACGGGCG, the “self-splicing fitness (ln)” value (30 °C) was -0.789 ± 0.13 and the “self-splicing fitness (ln)” value (37 °C) was -0.48 ± 0.14. In the case of CUUAAGCAAUAUUACGGUCA, the “self-splicing fitness (ln)” value (30 °C) is -3.8 ± 0.46 and the “self-splicing fitness (ln)” value (37 °C) is -3.15 ± 0.32. In the case of CUUAAGCAAUAUUACGGUGU, the “self-splicing fitness (ln)” value was -3.31 ± 0.22 (30 °C) and -2.02 ± 0.18 (37 °C). Taken in the same sequence, the figures for CUUAAGCAAUAUUACGUAAG were -2.83 ± 0.1 and -1.27 ± 0.098. Take CUUAAGCAAUAUUACGUAGU: the “self-splicing fitness (ln)” value is -3.14 ± 0.13 (30 °C) and -2.3 ± 0.18 (37 °C). As for CUUAAGCAAUAUUACGUAUG, the “self-splicing fitness (ln)” value reads like this: (30 °C) -1.37 ± 0.056; (37 °C) -1.24 ± 0.073.

As for CUUAAGCAAUAUUACGUCAU, the “self-splicing fitness (ln)” value by setting is: (30 °C) -4.2 ± 0.26; (37 °C) -2.84 ± 0.19. Consider CUUAAGCAAUAUUACGUCGA, for which the “self-splicing fitness (ln)” value is -1.85 ± 0.19 (30 °C) and -2.19 ± 0.38 (37 °C).

Take CUUAAGCAAUAUUACGUGCA: the “self-splicing fitness (ln)” value runs as follows: (30 °C) -2.91 ± 0.19; (37 °C) -1.34 ± 0.18. Taken in the same sequence, the figures for CUUAAGCAAUAUUACGUGCG were -1.34 ± 0.079 and -0.172 ± 0.1. For CUUAAGCAAUAUUACGUUAA, in that order: -3.97 ± 0.39 and -2.63 ± 0.32. For CUUAAGCAAUAUUACGUUUC, in that order: -3.98 ± 0.17 and -3.23 ± 0.28.

As for CUUCAGCAAUAUUACGAAAU, the “self-splicing fitness (ln)” value reads like this: (30 °C) -2.2 ± 0.31; (37 °C) -2.4 ± 0.5.

For CUUCAGCAAUAUUACGAAUA, the “self-splicing fitness (ln)” value (30 °C) was -2.77 ± 0.14 and the “self-splicing fitness (ln)” value (37 °C) is -2.09 ± 0.13.

Regarding CUUCAGCAAUAUUACGACGA, the “self-splicing fitness (ln)” value (37 °C) was -1.54 ± 0.37. CUUCAGCAAUAUUACGAGCG: the “self-splicing fitness (ln)” value was -0.695 ± 0.058 (30 °C) and -0.136 ± 0.085 (37 °C). With CUUCAGCAAUAUUACGAGGA, the “self-splicing fitness (ln)” value reads like this: (30 °C) -2.73 ± 0.26; (37 °C) -1.64 ± 0.24. For CUUCAGCAAUAUUACGAGUU, in that order: -3.14 ± 0.2 and -2.03 ± 0.2. With CUUCAGCAAUAUUACGAUGC, the “self-splicing fitness (ln)” value runs as follows: (30 °C) -2.93 ± 0.21; (37 °C) -2.23 ± 0.23. Taken in the same sequence, the figures for CUUCAGCAAUAUUACGAUUC were -2.88 ± 0.21 and -1.85 ± 0.16. Take CUUCAGCAAUAUUACGCAAC: the “self-splicing fitness (ln)” value (30 °C) is -2.86 ± 0.21. Still for that read-out and setting: in the case of CUUCAGCAAUAUUACGCACA it was -2.37 ± 0.24. Same read-out and setting: in the case of CUUCAGCAAUAUUACGCCAC it was -2.72 ± 0.5. For CUUCAGCAAUAUUACGCCUC, the “self-splicing fitness (ln)” value (37 °C) is -3.49 ± 0.32.

Regarding CUUCAGCAAUAUUACGCUUA, the “self-splicing fitness (ln)” value is -3.34 ± 0.2 (30 °C) and -2.4 ± 0.17 (37 °C). Taken in the same sequence, the figures for CUUCAGCAAUAUUACGGACG were -0.00287 ± 0.06 and -0.541 ± 0.073. On to CUUCAGCAAUAUUACGUACG, for which the “self-splicing fitness (ln)” value is, setting by setting: (30 °C) -0.327 ± 0.062; (37 °C) 0.542 ± 0.088. For CUUCAGCAAUAUUACGUAGA, in that order: -3.3 ± 0.19 and -2.92 ± 0.27. In the case of CUUCAGCAAUAUUACGUAGC, the “self-splicing fitness (ln)” value (30 °C) is -3.62 ± 0.16 and the “self-splicing fitness (ln)” value (37 °C) is -2.95 ± 0.25. Regarding CUUCAGCAAUAUUACGUCAA, the “self-splicing fitness (ln)” value (30 °C) is -1.25 ± 0.34. For CUUGAGCAAUAUUACGAAAU, the “self-splicing fitness (ln)” value was -2.7 ± 0.2 (30 °C) and -3.68 ± 0.46 (37 °C).

Turning to CUUGAGCAAUAUUACGACCA, the “self-splicing fitness (ln)” value (30 °C) was -1.41 ± 0.32.

As for CUUGAGCAAUAUUACGAGAA, where the note is “30 °C”, the “self-splicing fitness (ln)” value was -2.73 ± 0.4. As to CUUGAGCAAUAUUACGAUAU, for the setting “37 °C”, the “self-splicing fitness (ln)” value is -1.76 ± 0.39. As for CUUGAGCAAUAUUACGAUCG, the “self-splicing fitness (ln)” value reads like this: (30 °C) -1.2 ± 0.16; (37 °C) -0.798 ± 0.23.

As to CUUGAGCAAUAUUACGAUUA, the “self-splicing fitness (ln)” value (30 °C) is -3.25 ± 0.26 and the “self-splicing fitness (ln)” value (37 °C) is -2.36 ± 0.35. For the sequence CUUGAGCAAUAUUACGAUUU, the “self-splicing fitness (ln)” value (37 °C) was -2.09 ± 0.39. Regarding CUUGAGCAAUAUUACGCAGA, the “self-splicing fitness (ln)” value reads like this: (30 °C) -1.11 ± 0.26; (37 °C) -1.91 ± 0.3.

Regarding CUUGAGCAAUAUUACGCCCU, under “37 °C”, the “self-splicing fitness (ln)” value was -2.21 ± 0.46. On the same count and under the same terms, in the case of CUUGAGCAAUAUUACGCCUG it was -1.13 ± 0.36.

Values taken from the supplement of paper PMC7877785.
